From US20230263916A1 (NANOMAB TECHNOLOGY, published 2023)

Legend:
[1] = biological target: T1, human Her2 (ECD)-Fc protein (human, UniProt P04626 23-652); test: PE-ELISA, A405 of antigen well over control well
T1 construct: extracellular domain; Made in HEK293F cells; also called hHer2 (ECD)-Fc antigen; Her2 (ECD)-Fc antigen; not shown: TEV restriction site at the C-terminal of hHer2 (ECD); IgG1 Fc of the pFUSE-IgG1 vector
Method: (§1) (1) 10 μg Her2 (ECD)-Fc antigen (10 μg Fc in NaHCO₃ as control) dissolved in 100 mM NaHCO₃ (pH 8.2) was coupled to a NUNC plate then incubated at 4° C. overnight.
(§2) (5) The unbound antibody was washed off with PBST.
(§3) (6) When the OD value of the sample was over 3 times of the OD value of the control sample (Ratio+/−>3), the tested sample was determined to be a positive clone. […] Then all the positive clones were transferred to LA medium for plasmid extraction and sequencing.

[2] = biological target: T1, human Her2 (ECD)-Fc protein; test: PE-ELISA, crude extract on antigen-coated plate
Method: as §1, §2, §3

| Ratio(+/-) [1] | A405+ [2] | Binder |
| --- | --- | --- |
| 25.6 | 2.18 A405 | Nanobody No. 12 (VHH, also called 12; not shown: tags (HA, His) implied by anti-HA detection and nickel column) VHH: QVQLQESGGGSVQAGETLRLSCTASGFTFDDSDMGWYRQAPGNECELVSTISSDGSTYYADSVKGRFTISQDNAKNTVYLQMNSLKPEDTAVYYCAADGHKYELGTCAALDYWGRGTQVTVSS |
| 23.9 | 2.31 A405 | Nanobody No. 30 (VHH, also called 30; not shown: tags (HA, His) implied by anti-HA detection and nickel column) VHH: QVQLQESGGGSVQAGETLRLSCTASGFTFDDSDMGWYRQAPGNECELVSTISSDGRTYYADSVKGRFAISQNNAKNTVYLQMNSLKPEDTAVYYCAADQHRYGLGTCEALDYWGRGTQVTVSS |
| 23.3 | 1.86 A405 | Nanobody No. 28 (VHH, also called 28; not shown: tags (HA, His) implied by anti-HA detection and nickel column) VHH: QVQLQESGGGLVQPGGSLRLSCAASGFTFGDSGMGWYRQAPGNECELVSSVSSDGSTYYADSVKGRFTISQDNAKNTVYLRMNSLKPEDTAVYYCAADDHKYELGTCEALDYWGRGTQVTVSS |
| 26.1 | 2.27 A405 | Nanobody No. 15 (VHH, also called 15; not shown: tags (HA, His) implied by anti-HA detection and nickel column) VHH: QVQLQESGGGSVQAGGSLRLSCTASRFTFDDSDMGWYRQAPGNECELVSTISSDGATYYANSVKGRFTISQDNAANTVYLQMNSLKPEDTAVYYCAALEWEYELGTCEALDYWGQGTQVTVSS |
| 23.5 | 1.79 A405 | Nanobody No. 16 (VHH, also called 16; not shown: tags (HA, His) implied by anti-HA detection and nickel column) VHH: QVQLQESGGGSVQAGGSLRLSCTASGFTFDDSDMVWYRQAPGNECELVSRISSDGSTYYADSVKGRFTISQDNAKNTVYLQMNSLKPEDTAVYYCAALEWEYELGTCEALDYWGQGTQVTVSS |
| 19.3 | 1.53 A405 | Nanobody No. 2 (VHH, not shown: tags (HA, His) implied by anti-HA detection and nickel column) VHH: QVQLQESGGGSVQAGETLRLSCTASGFTFDDSDMGWYRQAPGNECELVSTISSDGSTYYADSVKGRFTISQDNAKNAVYLQMNSLKPEDTAVYYCAAHPLHYELGTCAALDYWGRGTQVTVSS |
| 10.2 | 1.47 A405 | Nanobody No. 20 (VHH, also called 20; not shown: tags (HA, His) implied by anti-HA detection and nickel column) VHH: QVQLQESGGGSVQAGGSLRLSCTASGFTFDDSVMGWFRKAPGNECELVSTISSDGSTYYADSVKGRFTISQDNAKNTVYLQMNNLKPEDTAVYYCAAINSGYELGTCESLDYWGRGTQVTVSS |
| 22.3 | 1.72 A405 | Nanobody No. 1 (VHH, not shown: tags (HA, His) implied by anti-HA detection and nickel column) VHH: QVQLQESGGGSVQAGETLRLSCTASGFTFDDSDMGWYRQAPGNECELVSTISSDGSTYYADSVKGRFTISQDNAKNTVYLQMNSLKPEDTAVYYCAAHPLHYELGTCAALDYWGRGTQVTVSS |
| 25.5 | 1.88 A405 | Nanobody No. 11 (VHH, also called 11; not shown: tags (HA, His) implied by anti-HA detection and nickel column) VHH: QVQLQESGGGSVQAGETLRLSCTASGFTFDDSDMGWYRQAPGNECELVSHISSGGSTYYADSVKGRFTISQDNAKNTVYLQMNSLKPEDTAVYYCAADGSNYELGTCAALDYWGRGTQVTVSS |
| 24.4 | 1.96 A405 | Nanobody No. 14 (VHH, also called 14; not shown: tags (HA, His) implied by anti-HA detection and nickel column) VHH: QVQLQESGGGSVQAGETLRLSCTASGFTFDDSDMGWYRQAPGNECELVSRISSDGSTYYADSVKGRFTISQDNAKNTVYLQMNSLKPEDTAVYYCAALEWEYELGTCEALDYWGQGTQVTVSS |
| 28 | 2.56 A405 | Nanobody No. 8 (VHH, not shown: tags (HA, His) implied by anti-HA detection and nickel column) VHH: QVQLQESGGGSVQAGETLRLSCTASGFTFDESVMGWYRQAPGNECELVSTISSDGSTYYSNSVKGRFTISQDNAKNTVYLQMNSLKPEDTAVYYCAADDHTYELGTCEALNYWGRGTQVTVSS |
| 13 | 1.31 A405 | Nanobody No. 3 (VHH, not shown: tags (HA, His) implied by anti-HA detection and nickel column) VHH: QVQLQESGGGSVQAGGSLRLSCTASGFTFDDSDVRWYRQAPGRECKLVSSISSDRSAYYEDSVKGRFTISQDNAKNTVYLQMNSLKPEDTAVYYCAAHPLHYELGTCAALDYWGRGTQVTVSS |
